Measured values taken from patent US20180079819A1 (IMMUNOGEN, published 2018).
Changes are numbered by the printed parent chain. Read-outs that look alike come from different tables or passages of the source.

Experiments:
[1] = target: T1, human CD123 (IL-3Rα, interleukin-3 receptor alpha chain) (human, UniProt P26951 19-378); assay: flow cytometry on HNT-34 cells, PE-conjugated goat anti-human secondary
T1 construct: CD123 on human cell lines (TF-1, HNT-34, MOLM-13 and other AML, B-ALL, CML and NHL lines) or on 300-19 cells stably expressing human CD123; also called CD123 antigen; human CD123 antigen
T1 sequence (P26951 19-378): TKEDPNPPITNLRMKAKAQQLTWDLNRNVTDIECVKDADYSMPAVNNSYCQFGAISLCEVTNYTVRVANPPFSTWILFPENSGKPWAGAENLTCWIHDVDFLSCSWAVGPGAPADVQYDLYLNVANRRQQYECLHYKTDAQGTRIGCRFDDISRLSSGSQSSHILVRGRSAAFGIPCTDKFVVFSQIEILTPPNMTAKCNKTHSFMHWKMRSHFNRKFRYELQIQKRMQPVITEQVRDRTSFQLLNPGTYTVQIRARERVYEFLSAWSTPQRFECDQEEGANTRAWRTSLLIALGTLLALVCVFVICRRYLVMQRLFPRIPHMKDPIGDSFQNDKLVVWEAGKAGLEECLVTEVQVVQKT

[2] = target: T1, human CD123 (IL-3Rα, interleukin-3 …); assay: cell-based or functional assay
[3] = target: T1, human CD123 (IL-3Rα, interleukin-3 …); assay: cell-based or functional assay; remark: listed apart in the source
[4] = target: T1, human CD123 (IL-3Rα, interleukin-3 …); assay: cell-based or functional assay; remark: listed apart in the source
[5] = target: T1, human CD123 (IL-3Rα, interleukin-3 …); assay: flow cytometry on HNT-34 cells, PE-conjugated goat anti-human secondary; remark: listed apart in the source

B1: huCD123-6Gv4.7S3-D2 (antibody, human IgG1, kappa)
heavy: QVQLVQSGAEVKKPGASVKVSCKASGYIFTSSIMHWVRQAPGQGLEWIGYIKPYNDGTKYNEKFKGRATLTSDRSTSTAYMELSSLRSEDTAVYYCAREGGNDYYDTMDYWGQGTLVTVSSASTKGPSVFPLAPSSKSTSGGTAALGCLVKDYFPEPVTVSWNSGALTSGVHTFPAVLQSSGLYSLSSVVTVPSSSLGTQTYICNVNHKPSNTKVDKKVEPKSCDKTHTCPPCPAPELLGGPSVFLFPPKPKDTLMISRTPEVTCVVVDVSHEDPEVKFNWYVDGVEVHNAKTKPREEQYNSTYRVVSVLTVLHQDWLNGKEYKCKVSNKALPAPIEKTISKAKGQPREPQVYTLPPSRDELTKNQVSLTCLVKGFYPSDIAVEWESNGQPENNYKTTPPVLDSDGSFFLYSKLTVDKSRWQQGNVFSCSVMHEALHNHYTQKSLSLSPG
light: SIQMTQSPSSLSASVGDRVTITCRASQDINSYLSWFQQKPGKAPKTLIYRVNRLVDGVPSRFSGSGSGNDYTLTISSLQPEDFATYYCLQYDAFPYTFGQGTKVEIKRTVAAPSVFIFPPSDEQLKSGTASVVCLLNNFYPREAKVQWKVDNALQSGNSQESVTEQDSKDSTYSLSSTLTLSKADYEKHKVYACEVTHQGLSSPVTKSFNRGEC
modifications: D2 linked at Lys residues; sites not stated; D2 linked at Lys residues; average of 2.9 D2 per antibody, sites not stated
- EC50 (read off the curve) [1]: ~100 pM

B2: huCD123-6Gv4.6-CysMab-D5 (antibody)
heavy: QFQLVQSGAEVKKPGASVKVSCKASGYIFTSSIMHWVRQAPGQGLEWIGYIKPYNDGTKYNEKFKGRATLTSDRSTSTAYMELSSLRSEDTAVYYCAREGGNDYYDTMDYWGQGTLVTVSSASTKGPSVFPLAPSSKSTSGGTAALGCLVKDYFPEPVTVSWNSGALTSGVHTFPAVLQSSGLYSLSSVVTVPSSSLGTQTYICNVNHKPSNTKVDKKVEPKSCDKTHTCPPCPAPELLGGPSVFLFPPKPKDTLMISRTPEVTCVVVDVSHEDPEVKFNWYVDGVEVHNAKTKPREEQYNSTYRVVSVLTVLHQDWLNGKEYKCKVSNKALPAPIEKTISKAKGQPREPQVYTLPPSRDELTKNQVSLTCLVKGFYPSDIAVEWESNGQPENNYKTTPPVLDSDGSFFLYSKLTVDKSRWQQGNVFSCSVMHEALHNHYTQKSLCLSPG
light: B1 light with S1D
modifications: D5 linked through the engineered Cys in the heavy chain CH3 domain (5th to the last residue of SEQ ID NO: 54)
- IC50, in vitro cytotoxicity on EOL-1 cells [2]: ~2 pM
- IC50, in vitro cytotoxicity on KOPN-8 cells [2]: ~5 pM
- IC50, in vitro cytotoxicity on MOLM-1 cells [2]: ~20 pM
- fold loss of cytotoxicity when CD123 is blocked by the unconjugated chCD123-6 antibody [2]: ≥ 100 fold

B3: huCD123-6Rv1.1-D2 (antibody, human IgG1, kappa)
heavy: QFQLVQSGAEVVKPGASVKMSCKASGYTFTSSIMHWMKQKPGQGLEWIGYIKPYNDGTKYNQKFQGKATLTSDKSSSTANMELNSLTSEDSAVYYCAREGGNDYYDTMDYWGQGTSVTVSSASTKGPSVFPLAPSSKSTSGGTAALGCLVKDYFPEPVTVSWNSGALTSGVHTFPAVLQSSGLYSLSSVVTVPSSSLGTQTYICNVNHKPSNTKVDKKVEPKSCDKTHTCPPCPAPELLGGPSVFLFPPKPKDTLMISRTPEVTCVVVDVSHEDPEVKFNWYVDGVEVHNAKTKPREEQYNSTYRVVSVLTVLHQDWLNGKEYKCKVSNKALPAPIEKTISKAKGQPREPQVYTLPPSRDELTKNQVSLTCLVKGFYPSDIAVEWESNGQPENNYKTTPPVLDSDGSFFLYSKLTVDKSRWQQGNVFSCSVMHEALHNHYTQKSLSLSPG
light: DIQMTQSPSSMSASVGERVTITCRASQDINSYLSWFQQKPGKSPKTLIYRVNRLVDGVPSRFSGSGSGQDYSLTISSLEPEDMGIYYCLQYDAFPYTFGQGTKLEIKRTVAAPSVFIFPPSDEQLKSGTASVVCLLNNFYPREAKVQWKVDNALQSGNSQESVTEQDSKDSTYSLSSTLTLSKADYEKHKVYACEVTHQGLSSPVTKSFNRGEC
modifications: D2 linked at Lys residues; sites not stated; D2 linked at Lys residues; sites and drug load not stated
- IC50, in vitro cytotoxicity on HNT-34 cells [2]: ~2 pM
- IC50, in vitro cytotoxicity on MOLM-1 cells [2]: ~30 pM
- IC50, in vitro cytotoxicity on SHI-1 cells [2]: ~10 pM
- fold loss of cytotoxicity when CD123 is blocked by the unconjugated huCD123-6 antibody [2]: ≥ 100 fold
- IC50, in vitro cytotoxicity on EOL-1 cells (AML) [3]: 2.5 pM
- IC50, in vitro cytotoxicity on Granta519 cells (NHL) [3]: 1.2 pM
- IC50, in vitro cytotoxicity on HNT-34 cells (AML) [3]: 2 pM
- IC50, in vitro cytotoxicity on JM-1 cells (B-ALL) [3]: 24 pM
- IC50, in vitro cytotoxicity on KASUMI-3 cells (AML) [3]: 9.8 pM
- IC50, in vitro cytotoxicity on KCL-22 cells (CML) [3]: 30 pM
- IC50, in vitro cytotoxicity on KG-1 cells (AML) [3]: 220 pM
- IC50, in vitro cytotoxicity on KO52 cells (AML) [3]: 14 pM
- IC50, in vitro cytotoxicity on KOPN8 cells (B-ALL) [3]: 11 pM
- IC50, in vitro cytotoxicity on MOLM-1 cells (CML) [3]: 29 pM
- IC50, in vitro cytotoxicity on MOLM-13 cells (AML) [3]: 0.49 pM
- IC50, in vitro cytotoxicity on MV4-11 cells (AML) [3]: 0.56 pM
- IC50, in vitro cytotoxicity on OCI-AML2 cells (AML) [3]: 88 pM
- IC50, in vitro cytotoxicity on SHI-1 cells (AML) [3]: 13 pM
- IC50, in vitro cytotoxicity on THP1 cells (AML) [3]: 6.7 pM

B4: huCD123-6Rv1.1-CX1-1-DM1 (antibody)
heavy: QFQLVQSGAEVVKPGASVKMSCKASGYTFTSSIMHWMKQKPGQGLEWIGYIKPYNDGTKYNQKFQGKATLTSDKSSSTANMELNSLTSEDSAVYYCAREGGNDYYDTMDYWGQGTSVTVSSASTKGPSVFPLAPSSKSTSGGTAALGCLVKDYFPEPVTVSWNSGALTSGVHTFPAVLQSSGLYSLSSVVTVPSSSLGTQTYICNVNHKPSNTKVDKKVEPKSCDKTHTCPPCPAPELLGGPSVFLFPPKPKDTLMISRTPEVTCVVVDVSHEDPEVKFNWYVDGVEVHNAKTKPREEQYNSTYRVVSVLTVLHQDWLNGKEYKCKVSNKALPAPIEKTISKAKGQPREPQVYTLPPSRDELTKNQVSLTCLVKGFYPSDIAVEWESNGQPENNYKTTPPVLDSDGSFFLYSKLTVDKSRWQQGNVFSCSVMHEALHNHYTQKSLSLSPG
light: B3 light
modifications: DM1 linked at Lys residues via the triglycyl CX1-1 linker; sites not stated; DM1 linked at Lys residues via the triglycyl CX1-1 linker; average of 4.3 or 6.7 maytansinoid per antibody, sites not stated
- IC50, in vitro cytotoxicity on OCI-AML4 cells [2]: 70 pM

B5: huCD123-6Gv4.7S3-SeriMab-D8 (antibody, human IgG1, kappa)
heavy: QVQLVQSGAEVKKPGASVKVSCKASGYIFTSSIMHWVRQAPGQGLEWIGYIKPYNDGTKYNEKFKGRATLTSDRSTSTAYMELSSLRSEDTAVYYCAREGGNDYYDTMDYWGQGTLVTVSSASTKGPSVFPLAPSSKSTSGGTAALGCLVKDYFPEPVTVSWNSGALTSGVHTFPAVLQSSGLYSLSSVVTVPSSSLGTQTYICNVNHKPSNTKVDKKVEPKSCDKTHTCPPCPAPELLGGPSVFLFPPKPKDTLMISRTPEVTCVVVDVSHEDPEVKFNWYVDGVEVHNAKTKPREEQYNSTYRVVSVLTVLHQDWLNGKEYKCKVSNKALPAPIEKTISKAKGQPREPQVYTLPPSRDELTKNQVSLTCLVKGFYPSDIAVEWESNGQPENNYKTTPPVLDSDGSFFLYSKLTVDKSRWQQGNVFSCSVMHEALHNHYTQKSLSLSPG
light: B1 light
modifications: D8 linked through the oxidized N-terminal Ser on the light chain
- EC50 (read off the curve) [1]: ~200 pM

B6: huCD123-6Rv1.1S2-SeriMab-D8 (antibody, human IgG1, kappa)
heavy: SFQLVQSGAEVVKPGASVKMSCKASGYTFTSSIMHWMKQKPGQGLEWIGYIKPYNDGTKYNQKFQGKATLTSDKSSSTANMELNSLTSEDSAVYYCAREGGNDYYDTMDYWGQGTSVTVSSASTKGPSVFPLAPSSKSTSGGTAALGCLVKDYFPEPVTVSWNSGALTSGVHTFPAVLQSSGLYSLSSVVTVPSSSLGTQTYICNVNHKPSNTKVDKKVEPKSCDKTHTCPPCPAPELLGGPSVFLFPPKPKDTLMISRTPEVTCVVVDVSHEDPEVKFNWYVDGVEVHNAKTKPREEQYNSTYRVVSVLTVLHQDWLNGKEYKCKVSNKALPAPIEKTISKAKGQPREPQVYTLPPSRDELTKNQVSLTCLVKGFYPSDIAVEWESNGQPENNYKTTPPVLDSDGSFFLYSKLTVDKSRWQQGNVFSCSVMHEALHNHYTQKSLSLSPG
light: B3 light
modifications: D8 linked through the oxidized N-terminal Ser on the heavy chain
- IC50, in vitro cytotoxicity on HNT-34 cells [2]: ~2 pM
- IC50, in vitro cytotoxicity on MOLM-1 cells [2]: ~30 pM
- IC50, in vitro cytotoxicity on SHI-1 cells [2]: ~10 pM
- fold loss of cytotoxicity when CD123 is blocked by the unconjugated huCD123-6 antibody [2]: ≥ 100 fold

B7: lysine-linked huCD123-6-IGN conjugate with DGN462 (antibody, human IgG1, kappa)
heavy: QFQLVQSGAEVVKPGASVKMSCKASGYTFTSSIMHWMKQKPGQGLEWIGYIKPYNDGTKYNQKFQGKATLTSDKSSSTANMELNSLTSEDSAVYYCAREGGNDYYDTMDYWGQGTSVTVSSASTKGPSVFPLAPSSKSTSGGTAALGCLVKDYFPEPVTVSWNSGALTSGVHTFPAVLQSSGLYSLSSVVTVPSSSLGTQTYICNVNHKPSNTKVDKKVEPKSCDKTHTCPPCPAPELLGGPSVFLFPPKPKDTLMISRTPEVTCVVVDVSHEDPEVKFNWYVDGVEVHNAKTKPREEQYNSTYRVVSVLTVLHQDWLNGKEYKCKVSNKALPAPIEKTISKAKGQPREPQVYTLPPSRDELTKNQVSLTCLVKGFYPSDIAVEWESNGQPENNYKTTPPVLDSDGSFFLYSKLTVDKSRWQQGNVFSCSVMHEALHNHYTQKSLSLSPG
light: B3 light
modifications: DGN462 linked at Lys residues; sites not stated; DGN462 linked at Lys residues; sites and drug load not given
- IC50, in vitro cytotoxicity on EOL-1 cells (AML) [3]: 9 pM
- IC50, in vitro cytotoxicity on Granta519 cells (NHL) [3]: 12 pM
- IC50, in vitro cytotoxicity on HNT-34 cells (AML) [3]: 23 pM
- IC50, in vitro cytotoxicity on JM-1 cells (B-ALL) [3]: 320 pM
- IC50, in vitro cytotoxicity on KASUMI-3 cells (AML) [3]: 2800 pM
- IC50, in vitro cytotoxicity on KCL-22 cells (CML) [3]: 2000 pM
- IC50, in vitro cytotoxicity on KG-1 cells (AML) [3]: 850 pM
- IC50, in vitro cytotoxicity on KO52 cells (AML) [3]: 390 pM
- IC50, in vitro cytotoxicity on KOPN8 cells (B-ALL) [3]: 53 pM
- IC50, in vitro cytotoxicity on MOLM-1 cells (CML) [3]: 1100 pM
- IC50, in vitro cytotoxicity on MOLM-13 cells (AML) [3]: 2.2 pM
- IC50, in vitro cytotoxicity on MV4-11 cells (AML) [3]: 1.6 pM
- IC50, in vitro cytotoxicity on OCI-AML2 cells (AML) [3]: 140 pM
- IC50, in vitro cytotoxicity on SHI-1 cells (AML) [3]: 170 pM
- IC50, in vitro cytotoxicity on THP1 cells (AML) [3]: 190 pM

B8: huCD123-6Gv4.7-CysMab-D5 (antibody)
heavy: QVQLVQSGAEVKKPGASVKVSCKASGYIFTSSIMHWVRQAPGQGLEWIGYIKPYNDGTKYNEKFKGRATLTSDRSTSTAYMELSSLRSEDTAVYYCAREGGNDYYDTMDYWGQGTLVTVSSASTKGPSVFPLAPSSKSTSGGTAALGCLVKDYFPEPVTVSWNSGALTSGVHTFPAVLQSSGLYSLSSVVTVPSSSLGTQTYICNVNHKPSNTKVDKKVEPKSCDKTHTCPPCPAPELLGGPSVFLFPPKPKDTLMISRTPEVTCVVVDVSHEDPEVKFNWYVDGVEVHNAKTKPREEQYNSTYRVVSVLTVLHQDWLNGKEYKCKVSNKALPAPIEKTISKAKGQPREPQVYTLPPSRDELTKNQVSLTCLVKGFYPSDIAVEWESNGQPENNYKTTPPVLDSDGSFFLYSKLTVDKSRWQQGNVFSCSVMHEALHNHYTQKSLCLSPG
light: B1 light with S1D
modifications: D5 linked through the engineered Cys in the heavy chain CH3 domain (5th to the last residue of SEQ ID NO: 54; EU/OU position 442); 2 mol D5/mol antibody
notes: also called huCD123-CysMab-D5; Cys-linked D5 conjugate
- Fold-specificity IC50 control ADC/IC50 huCD123-CysMab-D5, EOL-1 cells [4]: 1000 fold
- Fold-specificity IC50 control ADC/IC50 huCD123-CysMab-D5, HNT-34 cells [4]: 1100 fold
- Fold-specificity IC50 control ADC/IC50 huCD123-CysMab-D5, KASUMI-3 cells [4]: 100 fold
- Fold-specificity IC50 control ADC/IC50 huCD123-CysMab-D5, KG-1 cells [4]: 95 fold
- Fold-specificity IC50 control ADC/IC50 huCD123-CysMab-D5, KO52 cells [4]: 100 fold
- Fold-specificity IC50 control ADC/IC50 huCD123-CysMab-D5, MOLM-1 cells [4]: > 167 fold
- Fold-specificity IC50 control ADC/IC50 huCD123-CysMab-D5, MV4-11 cells [4]: 2000 fold
- Fold-specificity IC50 control ADC/IC50 huCD123-CysMab-D5, Molm-13 cells [4]: 2000 fold
- Fold-specificity IC50 control ADC/IC50 huCD123-CysMab-D5, SHI-1 cells [4]: > 3.33 fold
- Fold-specificity IC50 control ADC/IC50 huCD123-CysMab-D5, SKM-1 cells [4]: 57 fold
- Fold-specificity IC50 control ADC/IC50 huCD123-CysMab-D5, THP-1 cells [4]: 167 fold
- Fold-specificity IC50 control ADC/IC50 huCD123-CysMab-D5, UCSD-AML1 cells [4]: 400 fold
- IC50, in vitro cytotoxicity on EOL-1 cells [4]: 2 pmol
- IC50, in vitro cytotoxicity on HNT-34 cells [4]: 1 pmol
- IC50, in vitro cytotoxicity on KASUMI-3 cells [4]: 3 pmol
- IC50, in vitro cytotoxicity on KG-1 cells [4]: 60 pmol
- IC50, in vitro cytotoxicity on KO52 cells [4]: 20 pmol
- IC50, in vitro cytotoxicity on MOLM-1 cells [4]: 120 pmol
- IC50, in vitro cytotoxicity on MV4-11 cells [4]: 1 pmol
- IC50, in vitro cytotoxicity on Molm-13 cells [4]: 0.5 pmol
- IC50, in vitro cytotoxicity on SHI-1 cells [4]: 6 pmol
- IC50, in vitro cytotoxicity on SKM-1 cells [4]: 7 pmol
- IC50, in vitro cytotoxicity on THP-1 cells [4]: 30 pmol
- IC50, in vitro cytotoxicity on UCSD-AML1 cells [4]: 1 pmol
- EC50 (read off the curve) [5]: ~80 pM
